The values that follow come from PMC11951922.

First the molecules themselves.
B1: KA7–GGGS–TP (peptide)
peptide: KAKAKAKAKAKAKAGGGSGGGKKHVPGGGSVQIVYKPVDL
B2: KA7–(GGGS)3–TP (peptide)
peptide: KAKAKAKAKAKAKAGGGSGGGSGGGSGGGKKHVPGGGSVQIVYKPVDL
B3: KA7–(EAAAK)2–TP (peptide)
peptide: KAKAKAKAKAKAKAEAAAKEAAAKGGGKKHVPGGGSVQIVYKPVDL

The test has as its target AF-tubulin (porcine) (UniProt P02550).
UniProt P02550, sequence (P02550 whole entry, chain 1 of 2): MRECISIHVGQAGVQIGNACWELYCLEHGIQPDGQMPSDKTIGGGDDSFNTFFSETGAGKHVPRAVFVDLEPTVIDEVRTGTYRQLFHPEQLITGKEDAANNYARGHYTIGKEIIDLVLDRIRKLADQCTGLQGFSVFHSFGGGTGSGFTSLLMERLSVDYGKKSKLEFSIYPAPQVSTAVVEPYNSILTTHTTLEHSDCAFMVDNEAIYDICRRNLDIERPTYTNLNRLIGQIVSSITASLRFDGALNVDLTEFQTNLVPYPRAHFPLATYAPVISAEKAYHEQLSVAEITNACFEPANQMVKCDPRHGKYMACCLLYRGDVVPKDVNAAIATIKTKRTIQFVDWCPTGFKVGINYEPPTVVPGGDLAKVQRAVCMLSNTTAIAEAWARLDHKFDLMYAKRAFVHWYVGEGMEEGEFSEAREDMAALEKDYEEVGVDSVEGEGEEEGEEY
UniProt P02550, sequence (Q767L7 whole entry, chain 2 of 2, further chain): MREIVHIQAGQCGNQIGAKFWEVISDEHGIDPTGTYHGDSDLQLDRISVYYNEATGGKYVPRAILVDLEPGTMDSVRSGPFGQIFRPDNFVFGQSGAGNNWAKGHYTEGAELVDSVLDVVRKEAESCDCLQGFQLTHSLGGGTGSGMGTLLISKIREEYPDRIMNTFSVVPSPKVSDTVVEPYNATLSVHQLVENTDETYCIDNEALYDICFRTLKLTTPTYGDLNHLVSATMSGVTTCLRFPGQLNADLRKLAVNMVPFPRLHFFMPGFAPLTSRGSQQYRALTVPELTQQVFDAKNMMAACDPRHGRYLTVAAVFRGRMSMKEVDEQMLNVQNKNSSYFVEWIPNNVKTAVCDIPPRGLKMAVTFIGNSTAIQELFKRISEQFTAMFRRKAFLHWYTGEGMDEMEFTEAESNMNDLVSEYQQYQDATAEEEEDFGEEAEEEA
For B1, the Pearson's correlation coefficient (PCC) of co-localisation of TMR-microtubule and AF-tubulin fluorescence in CLSM images, 100 uM peptide, doublet method (no peptide: 0.07) was found to be 0.61.

B2 showed a Pearson's correlation coefficient (PCC) of co-localisation of TMR-microtubule and AF-tubulin fluorescence in CLSM images, 100 uM peptide, doublet method (no peptide: 0.07) of 0.7.

Regarding B3, the Pearson's correlation coefficient (PCC) of co-localisation of TMR-microtubule and AF-tubulin fluorescence in CLSM images, 100 uM peptide, doublet method (no peptide: 0.07) was 0.72.
